{"source": "paper PMC5797019", "about": "“Peptide inhibition of the SETD6 methyltransferase catalytic activity” (Oncotarget, 2017)", "molecular_target": "GST-SETD6 (UniProt Q8TBK2)", "sequence (Q8TBK2 whole entry)": "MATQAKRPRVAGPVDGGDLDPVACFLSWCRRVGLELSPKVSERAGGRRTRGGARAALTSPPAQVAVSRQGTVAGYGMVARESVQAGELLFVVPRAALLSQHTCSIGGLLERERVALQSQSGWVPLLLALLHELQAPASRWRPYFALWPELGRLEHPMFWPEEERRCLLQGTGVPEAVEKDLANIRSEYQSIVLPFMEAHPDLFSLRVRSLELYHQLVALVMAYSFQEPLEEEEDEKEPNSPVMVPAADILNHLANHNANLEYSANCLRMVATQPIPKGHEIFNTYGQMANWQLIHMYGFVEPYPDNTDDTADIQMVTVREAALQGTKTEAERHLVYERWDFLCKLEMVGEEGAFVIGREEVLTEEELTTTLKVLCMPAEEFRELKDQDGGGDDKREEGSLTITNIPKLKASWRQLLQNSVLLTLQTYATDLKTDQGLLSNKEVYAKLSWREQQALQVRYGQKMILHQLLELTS", "data": [{"substance": "vp22-RelA302-316 peptide (from UniProt Q04206 302-316)", "values": [{"measurement": "auto-methylation signal of recombinant GST-SETD6 (in vitro methylation assay with 3H-labeled S-adenosyl methionine) with increasing amounts of vp22-RelA; significant reduction at 0.5 μM", "result": 2, "unit": "µM"}]}]}
